The source of these data is PMC7502524.

For this assay, the target named is PM20D1-flag (epitope-tagged, AAV serotype 8) (mouse) (UniProt Q8C165). Kind of assay: SEC. (In general: Size exclusion chromatography separates by hydrodynamic size, large species first.)
Chain of UniProt Q8C165 (Q8C165 25-503): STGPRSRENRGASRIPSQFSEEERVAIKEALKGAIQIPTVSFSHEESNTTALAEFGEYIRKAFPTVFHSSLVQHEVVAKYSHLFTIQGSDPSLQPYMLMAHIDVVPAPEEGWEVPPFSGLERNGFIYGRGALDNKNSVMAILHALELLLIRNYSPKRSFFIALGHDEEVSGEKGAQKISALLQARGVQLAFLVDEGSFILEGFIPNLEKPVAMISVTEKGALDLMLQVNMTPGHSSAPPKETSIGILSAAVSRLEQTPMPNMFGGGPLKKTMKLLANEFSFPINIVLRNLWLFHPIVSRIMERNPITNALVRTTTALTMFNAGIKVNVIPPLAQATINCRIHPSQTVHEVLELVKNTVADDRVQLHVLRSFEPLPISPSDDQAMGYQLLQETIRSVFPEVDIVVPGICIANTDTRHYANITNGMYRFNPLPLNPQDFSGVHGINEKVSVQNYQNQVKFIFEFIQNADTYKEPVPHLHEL

For “APOB (APOB-containing low-density lipoproteins of mouse plasma) (natural protein)”, the percent of total anti-flag band intensity in APOB+ fractions came to 91%.
